These results are taken from patent publication US20170015738A1.

For assay [1], the target named is hyper-phosphorylated P301L mutant human 4R0N tau from rTg4510 mouse brain (64 and 70 kDa species; P3 / brain extract) (human) (UniProt P10636). The experiment in a line: fluid phase MSD ELISA: antibody mixed with rTg4510 P3 in solution, capture on C10-2 coated plates. In general terms: In an ELISA, binding on a coated surface is turned into a signal by an enzyme label.

Assay [2] has the same target. Nature of the assay: cell-based or functional assay.
The target is the same in assay [3]. Nature of the assay: immunodepletion of rTg4510 brain extract with antibody on Protein G Dynabeads; western blot. For orientation: In western blotting, separated proteins are transferred to a membrane and probed.
The target is the same in assay [4]. Nature of the assay: MSD ELISA on immobilised P3; ratio of binding to Tg4510 over wt mouse material.
The target is the same in assay [5]. The experiment in a line: immunodepletion of rTg4510 brain extracts; western blot quantification (FIG. 14).
For assay [6], the target named is aggregated tau in rTg4510 brain extract (Cisbio assay) (human) (UniProt P10636). The experiment in a line: immunodepletion of rTg4510 brain extract with antibody on Protein G Dynabeads; Cisbio aggregation assay.
aggregated tau in rTg4510 brain extract (Cisbio assay) (human), sequence (P10636 other isoform, or with tags, fused parts or gaps): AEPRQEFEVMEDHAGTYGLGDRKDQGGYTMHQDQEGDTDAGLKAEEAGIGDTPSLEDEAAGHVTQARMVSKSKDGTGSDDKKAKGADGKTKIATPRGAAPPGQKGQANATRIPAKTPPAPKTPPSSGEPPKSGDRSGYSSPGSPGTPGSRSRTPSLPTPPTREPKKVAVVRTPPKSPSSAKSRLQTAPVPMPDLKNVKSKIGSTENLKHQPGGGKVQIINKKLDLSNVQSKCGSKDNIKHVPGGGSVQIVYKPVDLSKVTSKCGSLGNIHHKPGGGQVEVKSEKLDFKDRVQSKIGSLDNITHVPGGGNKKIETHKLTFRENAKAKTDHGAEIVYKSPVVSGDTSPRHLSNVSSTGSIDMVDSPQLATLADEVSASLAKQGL

hyper-phosphorylated P301L mutant human 4R0N tau from rTg4510 mouse brain (64 and 70 kDa species; P3 / brain extract) (human), sequence (P10636 other isoform, or with tags, fused parts or gaps P301L P301L): as the sequence (P10636 other isoform, or with tags, fused parts or gaps) above

B1: Antibody C10-2 (murine) (antibody, mouse IgG1, kappa, V domains shown)
VH: QVQLQQSDAELVKPGASVKISCKASGYTFTDRTIHWVKQRPEQGLEWIGYIYPGDGSTKYNENFKGKATLTADKSSSTAYMQLNSLTSEDSAVYFCARRGAMDYWGQGTSVTVSS
VL: DVQMIQSPSSLSASLGDIVTMTCQASQGTSINLNWFQQKPGKAPKLLIYGASNLEDGVPSRFSGSRYGTDFTLTISSLEDEDMATYFCLQHTYLPFTFGSGTKLEIKR
B1 gave an IC50 in assay [1] of 20 nM. Moreover, in assay [2], the prevention of insoluble tau in HEK293 cells seeded with immunodepleted rTg4510 homogenate (western blot) stood at 97% and the prevention of tau aggregation in HEK293 cells seeded with immunodepleted rTg4510 homogenate (Cisbio assay) is 88%. In addition, the percent removed by immunodepletion in assay [3] turned out to be 95%. Besides, in assay [4], the TG/wt came to 118 fold. The percent reduction of the 64 kDa band in assay [5] stood at 90%. The molecule further yielded a percent of tau aggregates removed in assay [6] of 99%.

B2: Antibody D1.2 (antibody, mouse IgG2b, kappa, V domains shown)
VH: QVQLQQSGAELVRPGASVTLSCKASGNTFTDYEIHWVKQTPVHGLEWIGAIDPETGNTAYNQKFKGKARLTADKSSSTAYMELRSLTSEDSAVYYCTRSRGFDYWGQGTTLTVSS
VL: DVMMTQTPLSLPVSLGDQASISCRSSQSLVHSNGNTYLHWHLQKPGQSPKFLIYKVSNRFSGVPDRFSGSGSGTDFTLKISRVEAEDLGVYFCSQSTHVPFTFGSGTKLEIKR
B2 had a percent removed by immunodepletion in assay [3] of 95%. The molecule further yielded a percent reduction of the 64 kDa band in assay [5] of 90%.

B3: 4E4 antibody (antibody, from another filing, V domains shown)
VH: EVQLVESGGGLVQPGGSLKLSCAASGFNFNISAIHWVRQASGKGLEWVGRIRSKSHNYATLYAASLKGRFTLSRDDSRNTAYLQMSSLQTEDMAVYYCTVLSANYDTFDYWGQGTLVTVSS
VL: SYELTQPPSVSVSPGQTARISCFGDTLPKQYTYWYQQKPGQAPVLVIYKDTERPSGIPERFSGSSSGTTVTLTISGVQAEDEADYYCLSADNSATWVFGGGTKVTVL
Consider B3, for which the TG/wt in assay [4] was found to be 1 fold.

The IC50 is the point on the concentration scale where inhibition reaches its midpoint.
